These results are taken from publication PMC2193355.

The target in assay [1] is purified α-dystroglycan (α-DG) (UniProt Q28685). Put plainly: far-Western, overlay or dot blot.
Assay [2] deals with high affinity virus binders. Put plainly: competitive inhibition binding assay.
Assay [3] has as its target low affinity viral binders. Put plainly: competitive inhibition binding assay.

As for “LCMV WE c54 (purified virus; viral glycoprotein GP1/GP2) (complex)”, the logs higher affinity than WE c2.2 in assay [1] was determined as 3 logs.

B1: soluble α-DG (receptor)
chain: HWPSEPSEAVRDWENQLEASMHSVLSDLHEALPTVVGIPDGTAVVGRSFRVTIPTDLIGSSGEVIKVSTAGKEVLPSWLHWDPQSHTLEGLPLDTDKGVHYISVSAAQLDANGSHIPQTSSVFSIEVYPEDHSEPQSVRAASPDLGEAAASACAAEEPVTVLTVILDADLTKMTPKQRIDLLHRMQSFSEVELHNMKLVPVVNNRLFDMSAFMAGPGNAKKVVENGALLSWKLGCSLNQNSVPDIRGVEAPAREGTMSAQLGYPVVGWHIANKKPPLPKRIRRQIHATPTPVTAIGPPTTAIQEPPSRIVPTPTSPAIAPPTETMAPPVRDPVPGKPTVTTRTRGAIIQTPTLGPIQPTRVSDAGTVVSGQIRATVTIPGYVEPTAVATPPTTTTKKPRVSTPKPATPSTDSSATTTRRPTKKPRTPRPVPRVTTKAPITRLETASPPTRIRTTTSGVPRGGEPNQRPELKNHIDRVDAWVGTYFEVKIPSDTFYDKEDTTTDKLKLTLKLREQQLVGEKSWVQFNSNSQLMYGLPDSSHVGKHEYFMHATDKGGLSAVDAFEIHVHKRPQGDKAPARFKAKFVGDPAPVVNDIHKKIALVKKLAFAFGDRNCSTVTLQNITRG
On to B1, for which the concentration of soluble α-DG for 33% blocking of virus binding to α-DG cells in assay [2] is 1 to 4 nM. This molecule also gave a concentration of soluble α-DG needed to block virus binding to α-DG cells in assay [3] greater than 400 nM.
